This is an account of results in paper PMC3239194.

Experiment [1] addresses I-Bth0305I isolated catalytic domain containing a D196A mutation (Bacillus thuringiensis 0305ϕ8–36 bacteriophage). In words: SEC. (In general: In gel filtration, larger molecules generally elute earlier.)
For experiment [2], the target named is I-Bth0305I full-length enzyme containing a catalytically inactivating D222N mutation (Bacillus thuringiensis 0305ϕ8–36 bacteriophage). Description: SEC.

As for “I-Bth0305I isolated catalytic domain containing a D196A mutation (domain or fragment)”, the stoichiometry N – broadly, a count of units in the complex or per binding partner – in experiment [1] is 2.
In turn, “I-Bth0305I full-length enzyme containing a catalytically inactivating D222N mutation” showed a stoichiometry N in experiment [2] of 2.
